The text below walks through data of patent publication US20210221907A1 (published 2021).

Assay [1] addresses T1, TROP2 on MDA-468 cells over-expressing TROP2 (TROP2+ MDA-468) (UniProt P09758 27-323).
T1 sequence (looked up): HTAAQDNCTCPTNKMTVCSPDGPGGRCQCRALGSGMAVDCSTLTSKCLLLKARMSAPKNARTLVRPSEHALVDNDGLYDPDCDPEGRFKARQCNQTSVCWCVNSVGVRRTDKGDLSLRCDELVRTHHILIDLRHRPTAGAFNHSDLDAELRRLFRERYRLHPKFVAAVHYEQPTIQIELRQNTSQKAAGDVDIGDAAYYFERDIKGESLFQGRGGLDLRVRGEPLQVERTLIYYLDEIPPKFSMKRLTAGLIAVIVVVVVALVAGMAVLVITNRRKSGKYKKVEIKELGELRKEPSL
The assay is described as follows: cell-based or functional assay.

Assay [2] has as its target T2, recombinant TROP2 protein (UniProt P09758 27-274, limits assumed).
T2 construct: also called rProtein
T2 sequence (looked up): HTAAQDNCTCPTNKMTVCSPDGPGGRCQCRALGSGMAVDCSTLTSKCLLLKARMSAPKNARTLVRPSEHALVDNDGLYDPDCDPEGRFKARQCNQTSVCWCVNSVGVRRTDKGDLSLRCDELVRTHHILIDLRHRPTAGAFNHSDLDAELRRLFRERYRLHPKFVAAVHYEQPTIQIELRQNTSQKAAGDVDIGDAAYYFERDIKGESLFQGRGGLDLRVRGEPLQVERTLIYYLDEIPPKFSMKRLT
Nature of the assay: ELISA titration, antibody with varying concentrations of recombinant TROP2 protein. As for the experimental part: Antibodies were tested in an antigen binding assay using ELISA titration experiments. Antibodies were incubated with varying concentrations of recombinant TROP2 protein [rProtein].
In general terms: In an ELISA, binding on a coated surface is turned into a signal by an enzyme label.

B1: TROP2-Ab8 (antibody, V domains shown)
VH: QVQLQQSGPEVVKPGASVKMSCKASGYRFTDYVINWVKQRTGQGLEWIGQIYPGSDSFHYNKNFKGKATLTADKSSNTAYMQLNSLTSEDSAVYFCARFFEGLAYWGQGTLVTVSA
VL: DIKMTQSPSSMYAFLGERVTITCKASQGINNYLSWFQLKPGKSPKSLIYRANRLVDGVPSRFSGSGSGQDYSLTISSLDYEDMGIYYCLQYDEFPLTFGGGTKLELK
notes: Monoclonal antibody from a hybridoma clone
For the molecule B1, in assay [1], the “Indirect Cytotoxicity Cell viability %” value amounted to 26% and the “Indirect Cytotoxicity IC50” value was determined as 0.0271 nM. In addition, the “rProtein ELISA Affinity” value in assay [2] is below 0.1 nM.

B2: TROP2-Ab22 (antibody, V domains shown)
VH: QVQLQQSGPELVKPGASVKMSCKASGYTFTDYVINWVKQRPGQGLEWVGQIYPGSDGTYYNEPFKGEATLTADKSSNTAYMQLSSLTSEDSAVYFCARFFEGFAYWGQGTLVTVSA
VL: DIKMTQSPSSMFASLGERVTITCKASQDINWYLSWFQQKPGKSPKTLIYRANRLVDGVPSRFSGSGSGQDYSLTISSLDYEDMGVYYCLQYEEFPLTFGAGTKLELK
notes: as for B1
As for B2, in assay [1], the “Indirect Cytotoxicity Cell viability %” value worked out at 34% and the “Indirect Cytotoxicity IC50” value came out at 0.0587 nM. Moreover, the “rProtein ELISA Affinity” value in assay [2] was 0.19 nM.

B3: TROP2-Ab51 (antibody, V domains shown)
VH: QVQLQQSGPEVVKPGASVKMSCRASGYRFTDYVINWVKQRTGQGLEWIGQIYPGSDSFHYNKNFKGKATLTADKSSNTAYMQLNSLTSEDSAVYFCARFFEGFAYWGQGTLVTVSA
VL: DIKMTQSPSSMYAFLGERVTITCKASQGINNYLSWFQLKPGKSPKSLIYRANRLVDGVPSRFSGSGSGQDYSLTISSLDYEDMGIYYCLQYDEFPLTFGGGTKLELK
notes: as for B1
As to B3, in assay [1], the “Indirect Cytotoxicity Cell viability %” value amounted to 39% and the “Indirect Cytotoxicity IC50” value is 0.0567 nM. Also, the “rProtein ELISA Affinity” value in assay [2] was below 0.1 nM.

B4: TROP2-Ab7 (antibody, V domains shown)
VH: QVQLQQSGPEVVKPGASVKMSCKASGYRFTDYVINWVKQRSGQGLEWIGQIYPGSDTFHYNKNFKGKATLTADKSSNTAYMQLNSLTSEDSAVYFCARFFEGFAYWGQGTLVTVSA
VL: DIKMTQSPSSMYAFLGERVTITCKASQGINNYLSWFHLKPGKSPKSLIYRANRLVDGVPSRFSGSGSGQDYSLTISSLDYEDVGIYYCLQYDEFPLTFGGGTKLELK
notes: Monoclonal antibody from a hybridoma clone (V regions amplified with mouse Ig primers)
In the case of B4, in assay [1], the “Indirect Cytotoxicity Cell viability %” value was found to be 34% and the “Indirect Cytotoxicity IC50” value was determined as 0.044 nM. Besides, the “rProtein ELISA Affinity” value in assay [2] came to 0.1 nM.

B5: TROP2-Ab46 (antibody, V domains shown)
VH: QVQLQQPGAELVRPGASVRLSCKSSGYTFTSYWINWVKQRPGQGLEWIGNIFPSHSYTNYNQKFRDKATLTVDKSSSTAYLQLSSPTSDDSAVYYCTRGSGFDYWGQGTALTVSS
VL: DILLTQSPAILSVSPGERVSFSCRASQNIGTSIHWYQQRTNGSPRLLISYASESISGIPSRFSGSGSGTDFTLIINSVESEDIADYYCQHSYSWPFTFGSGTKLEVK
notes: as for B1
Turning to B5, in assay [1], the “Indirect Cytotoxicity Cell viability %” value is 27% and the “Indirect Cytotoxicity IC50” value turned out to be 0.0672 nM. Further, the “rProtein ELISA Affinity” value in assay [2] is below 0.1 nM.

B6: TROP2-Ab50 (antibody, V domains shown)
VH: QVQLQQSGAELVRPGTSVKISCKASGYTFTNYWLDWIKQRPGQGLEWIGNIFPGGDYTNYNEEFRGKATLTADTSSRTAFMQLSSLTSEDSAVYFCARSSYDYWGQGTLVTVSA
VL: DILLTQSPAILSVSPGERVSFSCRASQNIGTSIHWYQQRTNGSPRLLIKYSSESISGIPSRFSGSGSGTDFSLTINSVESEDIGDYYCQHSYTWPFTFGSGTKLEIK
notes: Monoclonal antibody from a hybridoma clone; also called TROP2 -Ab0
Turning to B6, in assay [1], the “Indirect Cytotoxicity Cell viability %” value was 45% and the “Indirect Cytotoxicity IC50” value turned out to be 0.0992 nM. In addition, the “rProtein ELISA Affinity” value in assay [2] is below 0.1 nM.
